Measurements from paper PMC7924223, “Functionalization of the BCL6 BTB domain into a noncovalent crystallization chaperone” (IUCrJ, 2021).

Biological target: BCL6 BTB domain (BCL6^BTB), residues 6-129 with C8Q, C67R and C84N (human, UniProt P41182 6-129, C8Q | C67R | C84N)
Experiment: crystal structure; co-crystallization at 298 K; BCL6 proteins at 300 µM (monomer) in 20 mM HEPES pH 7.5, 300 mM NaCl, 3 mM β-mercaptoethanol; NCoR1^BBD1 peptide in 4:1, NCoR1^BBD2 peptide in 8:1 molar excess; the complex with nebulin^SH3-NCoR1^BBD1 purified by size-exclusion chromatography before crystallization
Details: both partners purified

B1: NCoR1^BBD1 peptide (high-affinity BCL6-binding domain 1 of the corepressor NCoR1) (peptide)
peptide: GITTIKEMGRSIHEIPR
notes: source: synthetic peptide (GL Biochem Shanghai Ltd)
binding result: binds
